B1: MTMR15 (parent)
chain: FSPDFTLRNTLKSTSEDSLVKQEC

Variants of: B1
Assay: protein stability index of a GFP-peptide fusion (GPS, HEK-293T) (PSI 1-6); higher = more stable
Settings: c terminus: a fixed tail appended
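Also: lentivirally expressed fusions sorted by FACS into six bins by GFP to DsRed ratio, PSI derived from sequencing read proportions per bin multiplied by bin number.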

Compared with FSPDFTLRNTLKSTSETSLVKQEC [D17T], FSPDFTLRNTLKSTSEKSLVKQEC [D17K] is lower in protein stability index: 2.22 for the first, 1.69 for the second.

Going from FSPDFTLRNTLKSTSEHSLVKQEC [D17H] to FSPDFTLRNTLKSTSEESLVKQEC [D17E], the protein stability index falls from 2.34 to 2.12.

Compared with FSPDFTLRNTLKSTSESSLVKQEC [D17S], FSPDFTLRNTLKSTSEWSLVKQEC [D17W] is higher in protein stability index: 1.45 for the first, 2.6 for the second.

Going from FSPDFTLRNTLKSTSEPSLVKQEC [D17P] to FSPDFTLRNTLKSTSECSLVKQEC [D17C], the protein stability index falls from 2.08 to 1.47.

Going from GSPDFTLRNTLKSTSEDSLVKQEC [F1G] to HSPDFTLRNTLKSTSEDSLVKQEC [F1H], the protein stability index falls from 5.09 to 4.96.

First: PSPDFTLRNTLKSTSEDSLVKQEC [F1P]
Second: ISPDFTLRNTLKSTSEDSLVKQEC [F1I]
The protein stability index of the first is higher: 5.1 for the first, 4.71 for the second.

First: VSPDFTLRNTLKSTSEDSLVKQEC [F1V]
Second: KSPDFTLRNTLKSTSEDSLVKQEC [F1K]
The protein stability index of the first is lower: 4.83 for the first, 5 for the second.

First: NSPDFTLRNTLKSTSEDSLVKQEC [F1N]
Second: CSPDFTLRNTLKSTSEDSLVKQEC [F1C]
The protein stability index of the first is higher: 5.19 for the first, 4.17 for the second.

Compared with FSPDFTLRNTLASTSEDSLVKQEC [K12A], FSPDFTLRNTLISTSEDSLVKQEC [K12I] is higher in protein stability index: 1.79 for the first, 2.6 for the second.

Going from FSPDFTLRNTLNSTSEDSLVKQEC [K12N] to FSPDFTLRNTLVSTSEDSLVKQEC [K12V], the protein stability index rises from 1.41 to 2.14.

Compared with FSPDFTLRNTLESTSEDSLVKQEC [K12E], FSPDFTLRNTLSSTSEDSLVKQEC [K12S] is lower in protein stability index: 2.67 for the first, 2.04 for the second.

Compared with FSPDFTLRNTLFSTSEDSLVKQEC [K12F], FSPDFTLRNTAKSTSEDSLVKQEC [L11A] is lower in protein stability index: 2.03 for the first, 1.57 for the second.

First: FSPDFTLRNTRKSTSEDSLVKQEC [L11R]
Second: FSPDFTLRNTVKSTSEDSLVKQEC [L11V]
The protein stability index of the first is lower: 1.81 for the first, 2.26 for the second.

Compared with FSPDFTLRNTIKSTSEDSLVKQEC [L11I], FSPDFTLRNTCKSTSEDSLVKQEC [L11C] is lower in protein stability index: 2.83 for the first, 2.42 for the second.

Compared with FSPDFTLRNTLKSTSEDSGVKQEC [L19G], FSPDFTLRNTLKSTSEDSQVKQEC [L19Q] is higher in protein stability index: 2 for the first, 3.03 for the second.

First: FSPDFTLRNTLKSTSEDSNVKQEC [L19N]
Second: FSPDFTLRNTLKSTSEDSMVKQEC [L19M]
The protein stability index of the first is lower: 2.2 for the first, 2.46 for the second.

Compared with FSPDFTLRNTLKSTSEDSPVKQEC [L19P], FSPDFTLRNTLKSTSEDSHVKQEC [L19H] is higher in protein stability index: 1.96 for the first, 2.32 for the second.

Going from FSPDFTLRNTLKSTSEDSWVKQEC [L19W] to FSPDFTLRNTLKSTSEDSYVKQEC [L19Y], the protein stability index rises from 1.69 to 2.24.

Going from FSPDFTLRNTLKSTSEDSLVKQPC [E23P] to FSPDFTLRNTLKSTSEDSLVKQMC [E23M], the protein stability index falls from 2.04 to 1.88.

Going from FSPDFTLRNTLKSTSEDSLVKQYC [E23Y] to FSPDFTLRNTLKSTSEDSLVKQAC [E23A], the protein stability index rises from 1.84 to 2.87.

Going from FSPDFTLRNTLKSTSEDSLVKQVC [E23V] to FSPDFTLRNTLKSTSEDSLVKQDC [E23D], the protein stability index falls from 1.94 to 1.52.

First: FSPDFTLRNTLKSTSVDSLVKQEC [E16V]
Second: FSPDFTLRNTLKSTSHDSLVKQEC [E16H]
The protein stability index of the first is higher: 2.68 for the first, 2.25 for the second.

FSPDFTLRNTLKSTSWDSLVKQEC [E16W] and FSPDFTLRNTLKSTSPDSLVKQEC [E16P] are the same in protein stability index: 2.38 for the first, 2.38 for the second.

Going from FSPDFTLRNTLKSTSNDSLVKQEC [E16N] to FSPDFTLRNTLKSTSMDSLVKQEC [E16M], the protein stability index rises from 1.93 to 2.29.

Going from FSPDFTLRNTLKSTSFDSLVKQEC [E16F] to FSPDFTLRNTLKSTSSDSLVKQEC [E16S], the protein stability index falls from 2.48 to 2.1.

First: FSPDFTLRNTLKSTSQDSLVKQEC [E16Q]
Second: FSPDFTLRNTLKSTSEDSLVKQED [C24D]
The protein stability index of the first is lower: 2.41 for the first, 2.59 for the second.

First: FSPDFTLRNTLKSTSEDSLVKQEQ [C24Q]
Second: FSPDFTLRNTLKSTSEDSLVKQEF [C24F]
The protein stability index of the first is higher: 2.87 for the first, 2.63 for the second.

Going from FSPDFTLRNTLKSTSEDSLVKQEP [C24P] to FSPDFTLRNTLKSTSEDSLVKQEG [C24G], the protein stability index falls from 2.75 to 2.39.

FSPDFTLRNTLKSTSEDSLVKQEA [C24A] and FSPDFTLRNTLKSTSEDSLVKQEV [C24V] are the same in protein stability index: 2.03 for the first, 2.03 for the second.

First: FSPDFTLRNTLKSTSEDSLVKQEH [C24H]
Second: FSPDFTLRNTLKSTSEDSLVKQEE [C24E]
The protein stability index of the first is higher: 1.85 for the first, 1.69 for the second.

Compared with FSPDFTLRNTLKSTSEDSLVGQEC [K21G], FSPDFTLRNTLKSTSEDSLVLQEC [K21L] is lower in protein stability index: 2.15 for the first, 2.04 for the second.

Compared with FSPDFTLRNTLKSTSEDSLVFQEC [K21F], FSPDFTLRNTLKSTSEDSLVPQEC [K21P] is lower in protein stability index: 2.06 for the first, 1.86 for the second.

First: FSPDFTLRNTLKSTSEDSLVIQEC [K21I]
Second: FSPDFTLRNTLKSTSEDSLVRQEC [K21R]
The protein stability index of the first is lower: 2.21 for the first, 3.02 for the second.

Compared with FSPDFTLRNTLKSTSEDSLVAQEC [K21A], FSPDFTLRNTLKSTSEDSLVSQEC [K21S] is lower in protein stability index: 2.81 for the first, 1.9 for the second.

First: FSPDFTLRNTLKSTSEDSLVVQEC [K21V]
Second: FSPDFTKRNTLKSTSEDSLVKQEC [L7K]
The protein stability index of the first is lower: 2 for the first, 2.39 for the second.

Going from FSPDFTTRNTLKSTSEDSLVKQEC [L7T] to FSPDFTHRNTLKSTSEDSLVKQEC [L7H], the protein stability index falls from 2.75 to 2.15.

First: FSPDFTSRNTLKSTSEDSLVKQEC [L7S]
Second: FSPDFTVRNTLKSTSEDSLVKQEC [L7V]
The protein stability index of the first is higher: 2.08 for the first, 1.83 for the second.

First: FSPDFTRRNTLKSTSEDSLVKQEC [L7R]
Second: FSPDFTNRNTLKSTSEDSLVKQEC [L7N]
The protein stability index of the first is higher: 2.56 for the first, 1.91 for the second.

First: FSPDFTQRNTLKSTSEDSLVKQEC [L7Q]
Second: FSPDFTLRCTLKSTSEDSLVKQEC [N9C]
The protein stability index of the first is lower: 2.16 for the first, 2.35 for the second.

Going from FSPDFTLRYTLKSTSEDSLVKQEC [N9Y] to FSPDFTLRRTLKSTSEDSLVKQEC [N9R], the protein stability index falls from 3.7 to 2.62.

Compared with FSPDFTLRGTLKSTSEDSLVKQEC [N9G], FSPDFTLRFTLKSTSEDSLVKQEC [N9F] is higher in protein stability index: 1.93 for the first, 2.7 for the second.

Compared with FSPDFTLRSTLKSTSEDSLVKQEC [N9S], FSPDFTLRETLKSTSEDSLVKQEC [N9E] is lower in protein stability index: 2.34 for the first, 1.72 for the second.

Compared with FSPDFTLRDTLKSTSEDSLVKQEC [N9D], FSPDFTLRNQLKSTSEDSLVKQEC [T10Q] is higher in protein stability index: 1.54 for the first, 1.59 for the second.

Going from FSPDFTLRNMLKSTSEDSLVKQEC [T10M] to FSPDFTLRNLLKSTSEDSLVKQEC [T10L], the protein stability index rises from 2.11 to 2.61.

First: FSPDFTLRNNLKSTSEDSLVKQEC [T10N]
Second: FSPDFTLRNGLKSTSEDSLVKQEC [T10G]
The protein stability index of the first is lower: 1.87 for the first, 2.03 for the second.

Compared with FSPDFTLRNILKSTSEDSLVKQEC [T10I], FSPDFTLRNWLKSTSEDSLVKQEC [T10W] is lower in protein stability index: 2.64 for the first, 2.32 for the second.

First: FSPDFTLRNCLKSTSEDSLVKQEC [T10C]
Second: FSPDFTLRNTLKSTTEDSLVKQEC [S15T]
The protein stability index of the first is higher: 2.14 for the first, 1.85 for the second.
